The subject of test [1] is Abp1-mTurquoise2 at endocytic sites. As to the kind of experiment: Lifetime TIRF microscopy, Abp1+ / Abp1- endocytic events of Ent1/Ent2-mNeonGreen. It counts as cell-based, Saccharomyces cerevisiae. The following applies: Supp. Figure 12; Ent1-mNeonGreen in yeast strains with Chc WT or box mutants (Cla, Cla + Arr, Cla + W); Type ABP+; average of single points. The method, then:
To determine the effect of mutating the CHC-NTD Clathrin, Arrestin and W-boxes in how endocytosis progresses, cells tagged with Ent1/2p-mNeonGreen, Chc-mScarlet and Abp1-mTurquoise2 were used. Yeast cells previously described were grown overnight at 30 °C with shaking in a 24-well plate using LD(=low-fluorescence SD)-Trp^-, Leu^- medium (yeast nitrogen base without amino acids supplemented with the corresponding DropOut media, Foredium, CYN402). Cells were diluted in fresh medium with a starting OD600nm of 0.1 and allowed to grow at 30 °C with shaking for several hours (4-6hs) until they reached log phase (OD600nm 0.6-1.2). Micro slide 8-well glass bottom plates (Catalog 80807, Ibidi, Gräfelfing, Germany) were treated with 50 µL of a 1 mg/ml concanavalin A (prepared in 10 mM sodium phosphate buffer pH 6, 10 mM CaCl2,1 mM MnCl2, 0.01% NaN3, Catalog C2010, Sigma Aldrich) solution, incubated for 5 min and then washed twice with 50 µL of fresh medium. 50 µL of cell suspension was applied, incubated for 5 min and removed. Then each well was washed twice with 50 µL of fresh medium. Finally, 50 µL of fresh medium was added. […]

Test [2] addresses T1, Chc-mScarlet Clathrin box mutant (K63E, I87D, Q89A, K98E) (Saccharomyces cerevisiae, UniProt P22137 1-1653, K63E | I87D | Q89A | K98E).
T1 construct: Clathrin heavy chain, Saccharomyces cerevisiae, the ORF of CHC1 fused in the 3' with mScarlet, Clathrin box mutant; also called Cla mutant; source: S. cerevisiae MK100, mutated plasmid pRS315-5'UTR CHC-mScarlet, endogenous CHC1 knocked out, in living cells; not shown: mScarlet, C-terminal, kept
In words: FRET or BRET; acceptor photobleaching FRET in living yeast cells at endocytic patches stalled with Latrunculin A, donor mNeonGreen on Ent1/Ent2, acceptor mScarlet on Chc, 21 °C; trimmed mean FRET efficiency. Particulars: partners not purified.

In test [3] the target is T2, Clathrin heavy chain fused to mScarlet (Chc-mScarlet), wild type (Saccharomyces cerevisiae, UniProt P22137 1-1653).
T2 construct: Clathrin heavy chain, Saccharomyces cerevisiae, the ORF of CHC1 fused in the 3' with mScarlet; also called Chc1-mScarlet; ScCHC-mScarlet; not shown: mScarlet, C-terminal, kept
The description is as above. Particulars: partners not purified.

Test [4] deals with T3, Chc-mScarlet Clathrin, Arrestin and W box mutant (Cla+Arr+W) (Saccharomyces cerevisiae, UniProt P22137 1-1653, F26A | K63E | I87D | Q89A | K98E | Q155A | Q195A | I197T | K251E).
T3 construct: Clathrin heavy chain, Saccharomyces cerevisiae, the ORF of CHC1 fused in the 3' with mScarlet, Clathrin, Arrestin and W box mutant; also called triple mutant; source: S. cerevisiae MK100, mutated plasmid pRS315-5'UTR CHC-mScarlet, endogenous CHC1 knocked out, in living cells; not shown: mScarlet, C-terminal, kept
The description is as above. The following applies: partners not purified.

In test [5] the target is T4, Chc-mScarlet Clathrin and Arrestin box mutant (Cla+Arr) (Saccharomyces cerevisiae, UniProt P22137 1-1653, K63E | I87D | Q89A | K98E | Q195A | I197T | K251E).
T4 construct: Clathrin heavy chain, Saccharomyces cerevisiae, the ORF of CHC1 fused in the 3' with mScarlet, Clathrin and Arrestin box mutant; source: S. cerevisiae MK100, mutated plasmid pRS315-5'UTR CHC-mScarlet, endogenous CHC1 knocked out, in living cells; not shown: mScarlet, C-terminal, kept
The description is as above. Particulars: partners not purified.

For test [6], the target named is T5, Chc-mScarlet Clathrin and W box mutant (Cla+W) (Saccharomyces cerevisiae, UniProt P22137 1-1653, F26A | K63E | I87D | Q89A | K98E | Q155A).
T5 construct: Clathrin heavy chain, Saccharomyces cerevisiae, the ORF of CHC1 fused in the 3' with mScarlet, Clathrin and W box mutant; source: S. cerevisiae MK100, mutated plasmid pRS315-5'UTR CHC-mScarlet, endogenous CHC1 knocked out, in living cells; not shown: mScarlet, C-terminal, kept
The description is as above. Particulars: partners not purified.

T1 sequence (P22137 whole entry K63E/I87D/Q89A/K98E, the tested form may be a part): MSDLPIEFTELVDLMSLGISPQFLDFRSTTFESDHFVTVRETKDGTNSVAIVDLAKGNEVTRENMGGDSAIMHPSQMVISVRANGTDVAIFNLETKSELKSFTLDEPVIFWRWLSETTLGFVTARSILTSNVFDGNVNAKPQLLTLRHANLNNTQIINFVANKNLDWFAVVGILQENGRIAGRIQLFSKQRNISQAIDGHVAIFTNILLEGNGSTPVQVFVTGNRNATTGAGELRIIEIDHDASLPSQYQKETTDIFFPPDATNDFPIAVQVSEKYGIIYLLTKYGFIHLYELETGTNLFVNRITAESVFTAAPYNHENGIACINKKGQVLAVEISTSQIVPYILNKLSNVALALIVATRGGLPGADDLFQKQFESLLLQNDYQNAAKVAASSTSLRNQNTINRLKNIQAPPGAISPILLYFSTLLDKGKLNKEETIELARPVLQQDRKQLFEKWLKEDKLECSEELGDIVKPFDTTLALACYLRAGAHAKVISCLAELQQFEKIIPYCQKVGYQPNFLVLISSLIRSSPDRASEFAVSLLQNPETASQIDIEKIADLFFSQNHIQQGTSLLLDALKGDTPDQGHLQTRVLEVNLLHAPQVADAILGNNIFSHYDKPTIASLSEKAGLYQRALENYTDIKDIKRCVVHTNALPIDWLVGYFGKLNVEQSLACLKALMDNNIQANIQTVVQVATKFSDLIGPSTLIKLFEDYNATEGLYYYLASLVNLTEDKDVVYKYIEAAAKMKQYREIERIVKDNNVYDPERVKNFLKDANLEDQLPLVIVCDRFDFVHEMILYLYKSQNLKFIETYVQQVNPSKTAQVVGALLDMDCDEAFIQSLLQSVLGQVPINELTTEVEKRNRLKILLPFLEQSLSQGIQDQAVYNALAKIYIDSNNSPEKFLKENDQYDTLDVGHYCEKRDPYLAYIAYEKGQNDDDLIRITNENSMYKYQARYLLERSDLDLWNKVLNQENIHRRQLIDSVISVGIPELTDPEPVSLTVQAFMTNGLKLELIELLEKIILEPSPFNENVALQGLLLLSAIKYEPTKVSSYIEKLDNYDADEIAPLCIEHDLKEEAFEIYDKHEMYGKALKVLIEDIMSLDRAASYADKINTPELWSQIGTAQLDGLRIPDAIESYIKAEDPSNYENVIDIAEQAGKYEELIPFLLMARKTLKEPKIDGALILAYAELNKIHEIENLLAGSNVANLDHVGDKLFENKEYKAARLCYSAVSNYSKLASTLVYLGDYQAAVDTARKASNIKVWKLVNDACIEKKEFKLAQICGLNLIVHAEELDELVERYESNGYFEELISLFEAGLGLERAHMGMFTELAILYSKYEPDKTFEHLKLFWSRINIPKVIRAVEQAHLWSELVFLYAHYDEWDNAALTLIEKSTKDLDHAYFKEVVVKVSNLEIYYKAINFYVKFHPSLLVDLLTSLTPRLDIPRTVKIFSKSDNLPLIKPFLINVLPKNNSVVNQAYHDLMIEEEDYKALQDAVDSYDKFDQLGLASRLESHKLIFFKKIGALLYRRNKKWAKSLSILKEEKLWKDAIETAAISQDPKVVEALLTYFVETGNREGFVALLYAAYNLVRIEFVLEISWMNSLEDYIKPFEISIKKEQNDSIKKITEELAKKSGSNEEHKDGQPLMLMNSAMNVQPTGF
T5 sequence (P22137 whole entry F26A/K63E/I87D/Q89A/K98E/Q155A, the tested form may be a part): as the sequence (P22137 whole entry K63E/I87D/Q89A/K98E, the tested form may be a part) above, with F26A, Q155A counted along it
T4 sequence (P22137 whole entry K63E/I87D/Q89A/K98E/Q195A/I197T/K251E, the tested form may be a part): as the sequence (P22137 whole entry K63E/I87D/Q89A/K98E, the tested form may be a part) above, with Q195A, I197T, K251E counted along it
T3 sequence (P22137 whole entry F26A/K63E/I87D/Q89A/K98E/Q155A/Q195A/I197T/K251E, the tested form may be a part): as the sequence (P22137 whole entry K63E/I87D/Q89A/K98E, the tested form may be a part) above, with F26A, Q155A, Q195A, I197T, K251E counted along it
T2 sequence (P22137 whole entry, the tested form may be a part): as the sequence (P22137 whole entry K63E/I87D/Q89A/K98E, the tested form may be a part) above, with E63K, D87I, A89Q, E98K counted along it

B1: Ent1 endogenously tagged with mNeonGreen (Ent1-mNeonGreen) (natural protein, UniProt Q12518 1-454, looked up)
chain: MSKQFVRSAKNLVKGYSSTQVLVRNATSNDNHQVSKDSLIELAEKSYDSADFFEIMDMLDKRLNDKGKYWRHIAKALTVIDYLIRFGSENCVLWCRENLYIIKTLKEFRHEDDEGIDQGQIVRVKAKELTALLSDDERLNEERNMNIKGRNRKGRRRRGTGRSDENDDDLQRAISASRLTAEEDERRRKQDEDYETALQLSKEEEELKRLQDLQRMQQQQGQQQLQQPMYYDIFGNPITPEEYAQFQLQQQQQQQQQQLQQQPMYYDVFGNPITPEELAQFQQQQQLQEQQYLASMQQQQQAMSNNPFAKSEQSSSSPKRNQLVAASSPQQLQQQKQQEPLIQNRTGNQSMTDKYSKLNELLATGTGIDTFGNVGEARIPAQHTKTGTFINSQGTGYRQVSDDPNHNPFLNSQYTGLPSTSVVPTQTGYGFGNQSQQQSQNNGSNNRGYTLIDL
notes: epsin Ent1, Saccharomyces cerevisiae, endogenous locus tagged with mNeonGreen; also called Ent1p; source: endogenously tagged, S. cerevisiae MK100, in living cells
With B1, the “Frequency of ABP+ (Abp1-positive) endocytic events, Average” value in test [1] turned out to be 33.3. In addition, the FRET efficiency was around 5% in test [2]; around 8% in test [3]; 4.66% in test [4]; 5.25% in test [5]; 5.93% in test [6].

The values above are taken from publication PMC11543927, “Subtleties in Clathrin heavy chain binding boxes provide selectivity among adaptor proteins of budding yeast” (Nature Communications, 2024).
